This passage reports stoichiometry N (RM subunits per S subunit) results from publication PMC11997821.

Assay [1] addresses BsaXI S subunit (476-residue specificity subunit of R.M.BsaXI) (Bacillus stearothermophilus). Put plainly: single-particle EM, 2D classification of particles (negative stain and cryo-EM); DNA-free and DNA-bound BsaXI particles, twice selected.
For assay [2] the target is unchanged. The assay can be described thus: SEC; Superdex75 column in NEB Diluent B; pooled, separately expressed RM and S subunits after chitin, DEAE, heparin and Source columns. (In gel filtration, larger molecules generally elute earlier.)

On to “BsaXI RM subunit (916-residue RM fusion subunit of the Type IIB restriction-modification enzyme R.M.BsaXI)”, for which the stoichiometry N (RM subunits per S subunit) in assay [1] and in assay [2] was 2 in each case.
